Reference: US20190071490A1, “Preventing Post-Ictal Headaches” (Beth Israel Deaconess Medical Center, Inc., priority 2017, published 2019)
Residue numbers refer to the chain shown, from its start. Names and notes keep the numbering of the source.

T1: rat α-CGRP (Rattus norvegicus, UniProt P01256)
T1 construct: rat α (1-37); purchased GenScript Corporation or Global Peptide Services
T1 sequence (P01256 83-119 limits assumed): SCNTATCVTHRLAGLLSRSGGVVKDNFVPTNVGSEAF

T2: human α-CGRP (Homo sapiens, UniProt P06881)
T2 construct: 1-37 (WT); purchased GenScript Corporation or Global Peptide Services
T2 sequence (P06881 83-119 limits assumed): T1 sequence (P01256 83-119 limits assumed) with S1A, N3D, D25N, E35K

B1: M46: G1 variant; L1 R28N; L2 G50A L56T; H2 E54K A57N S58E H61F; HC-FW3 L99T A100V (antibody, V domains shown)
VH: EVQLVESGGGLVQPGGSLRLSCAASGFTFSNYWISWVRQAPGKGLEWVAEIRSKSDNEATFYAEAVKGRFTISRDNAKNSLYLQMNSLRAEDTAVYYCTVYFDYGLAIQNYWGQGTLVTVSS
VL: EIVLTQSPATLSLSPGERATLSCKASKNVTTYVSWYQQKPGQAPRLLIYAASNRYTGIPARFSGSGSGTDFTLTISSLEPEDFAVYYCSQSYNYPYTFGQGTKLEIK
B2: M56: G1 variant; L1 R28N T30D; L2 L56S; H2 E54K A57N H61F; HC-FW3 L99T A100V (antibody, V domains shown)
VH: B1 VH with E58S
VL: B1 VL with T30D, A50G, T56S
B3: M50: G1 variant; L1 R28N; L2 G50A L56T; H2 E54K A57R; HC-FW3 L99T A100V (antibody, V domains shown)
VH: B1 VH with N57R, E58S, F61H
VL: B1 VL
B4: M55: G1 variant; L1 R28N T30A; L2 L56S; H2 E54K A57N S58E E64D; HC-FW3 L99T A100V (antibody, V domains shown)
VH: B1 VH with F61H, E64D
VL: B1 VL with T30A, A50G, T56S
B5: M54: G1 variant; L1 R28N T30A; L2 G50A; H2 E54K A57N S58P; HC-FW3 L99T A100V (antibody, V domains shown)
VH: B1 VH with E58P, F61H
VL: B1 VL with T30A, T56L
B6: M60: G1 variant; L1 R28N T30D; L2 L56S; H2 E54K A57N S58R H61F; HC-FW3 L99T A100V (antibody, V domains shown)
VH: B1 VH with E58R
VL: B1 VL with T30D, A50G, T56S
B7: M63: G1 variant; L1 R28N T30G; L2 G50A; H2 E54K A57N S58T; HC-FW3 L99T A100V (antibody, V domains shown)
VH: B1 VH with E58T, F61H
VL: B1 VL with T30G, T56L
B8: M61: G1 variant; L1 R28N T30G; L2 A51H; H2 E54Q A57N H61F; HC-FW3 L99T A100V (antibody, V domains shown)
VH: B1 VH with K54Q, E58S
VL: B1 VL with T30G, A50G, A51H, T56L
B9: M58: G1 variant; L1 R28N T30D; L2 L56S; H2 E54K A57N S58I H61F; HC-FW3 L99T A100V (antibody, V domains shown)
VH: B1 VH with E58I
VL: B1 VL with T30D, A50G, T56S
B10: M53: G1 variant; L1 R28N; L2 L561; H2 E54K A57N S58G; HC-FW3 L99T A100V (antibody, V domains shown)
VH: B1 VH with E58G, F61H
VL: B1 VL with A50G, T56I
B11: M25: G1 variant; L1 R28N; HC-FW3 L99T A100V (antibody, V domains shown)
VH: B1 VH with K54E, N57A, E58S, F61H
VL: B1 VL with A50G, T56L
B12: M59: G1 variant; L1 R28N T30D; L2 L56S; H2 E54K A57N S58N H61F; HC-FW3 L99T A100V (antibody, V domains shown)
VH: B1 VH with E58N
VL: B1 VL with T30D, A50G, T56S
B13: M57: G1 variant; L1 R28N T30D; L2 L56S; H2 E54K A57N S58E; HC-FW3 L99T A100V (antibody, V domains shown)
VH: B1 VH with F61H
VL: B1 VL with T30D, A50G, T56S
B14: M52: G1 variant; L1 R28N; L2 L561; H2 E54K A57N S58A; HC-FW3 L99T A100V (antibody, V domains shown)
VH: B1 VH with E58A, F61H
VL: B1 VL with A50G, T56I
B15: M47: G1 variant; L1 R28N; L2 G50A L56T; H2 E54K A57N S58G; HC-FW3 L99T A100V (antibody, V domains shown)
VH: B1 VH with E58G, F61H
VL: B1 VL
B16: M51: G1 variant; L1 R28N; L2 L561; H2 E54K A57G; HC-FW3 L99T A100V (antibody, V domains shown)
VH: B1 VH with N57G, E58S, F61H
VL: B1 VL with A50G, T56I
B17: M48: G1 variant; L1 R28N; L2 G50A L56T; H2 E54K A57N S58L; HC-FW3 L99T A100V (antibody, V domains shown)
VH: B1 VH with E58L, F61H
VL: B1 VL
B18: M62: G1 variant; L1 R28N T30G; L2 A51H L56T; H2 E54K A57N S58E; HC-FW3 L99T A100V (antibody, V domains shown)
VH: B1 VH with F61H
VL: B1 VL with T30G, A50G, A51H
B19: M49: G1 variant; L1 R28N; L2 G50A L56T; H2 E54K A57N S58Y H61F; HC-FW3 L99T A100V (antibody, V domains shown)
VH: B1 VH with E58Y
VL: B1 VL

Target: T1, rat α-CGRP
Assay: Biacore SPR affinity of Fab fragments to N-biotinylated rat α-CGRP on SA chip
Assay type: binding
Conditions: 37° C., screening mode except underlined values
Description: (§1) Affinity determination of the Fabs. Affinities of the anti-CGRP monoclonal antibodies were determined at either 25° C. or 37° C. using the BIACORE3000™ surface plasmon resonance (SPR) system (Biacore, INC, Piscataway N.J.) with the manufacture's own running buffer, HBS-EP (10 mM HEPES pH 7.4, 150 mM NaCl, 3 mM EDTA, 0.005% v/v polysorbate P20). Affinity was determined by capturing N-terminally biotinylated CGRP peptides (custom ordered from GenScript Corporation, New Jersey or Global Peptide Services, Colorado) via pre-immobilized streptavidin on SA chip and measuring binding kinetics of antibody Fab titrated across the CGRP surface. Biotinylated CGRP was diluted into HBS-EP and injected over the chip at a concentration of less than 0.001 mg/ml. Using variable flow time across the individual chip channels, two ranges of antigen density were achieved: <50 response units (RU) for detailed kinetic studies and about 800 RU for concentration studies and screening. […] After each binding cycle, surfaces were regenerated with 25 mM NaOH in 25% v/v ethanol, which was tolerated over hundreds of cycles. Kinetic association rate (kon) and dissociation rate (koff) were obtained simultaneously by fitting the data to a 1:1 Langmuir binding model (Karlsson et al. (1994). Methods Enzymology 6. 99-110) using the BIAevaluation program. Global equilibrium dissociation constants (KD) or “affinities” were calculated from the ratio KD=koff/kon.
(§2) Biacore assay for affinity determination. […] All Biacore assays were conducted in HBS-EP running buffer (10 mM HEPES pH 7.4, 150 mM NaCl, 3 mM EDTA, 0.005% v/v polysorbate P20). CGRP surfaces were prepared by diluting the N-biotinylated CGRP to a concentration of less than 0.001 mg/mL into HBS-EP buffer and injecting it across the SA sensor chip using variable contact times. Low capacity surfaces, corresponding to capture levels <50 response units (RU) were used for high-resolution kinetic studies, whereas high capacity surfaces (about 800 RU of captured CGRP) were used for concentration studies, screening, and solution affinity determinations. […] Samples were typically injected for 1 minute at 100 μL/min and dissociation times of at least 10 minutes were allowed. After each binding cycle, surfaces were regenerated with 25 mM NaOH in 25% v/v ethanol, which was tolerated over hundreds of cycles. An entire titration series (typically generated in duplicate) was fit globally to a 1:1 Langmuir binding model using the BIAevaluation program. This returned a unique pair of association and dissociation kinetic rate constants (respectively, kon and koff) for each binding interaction, whose ratio gave the equilibrium dissociation constant (KD=koff/kon).
(§3) High-resolution analysis of binding interactions with extremely slow off rates. […] The protocol described above was used with the following modifications. The association rate constant (kon) was determined by injecting a 2-fold titration series (in duplicate) spanning 550 nM-1 nM for 30 seconds at 100 μL/min and allowing only a 30 second dissociation phase. The dissociation rate constant (koff) was determined by injecting three concentrations (high, medium, and low) of the same titration series in duplicate for 30 seconds and allowing a 2-hour dissociation phase. The affinity (KD) of each interaction was obtained by combining the kon and koff values obtained in both types of experiments, as shown in Table 4.

Point of comparison: B17, “α-rat koff” value 0.0343 s⁻¹. Against it:
- B1 — 12-fold lower, 0.00294 s⁻¹
- B2 — 3.7-fold lower, 0.00935 s⁻¹
- B3 — 6.5-fold lower, 0.0053 s⁻¹
- B4 — 5.9-fold lower, 0.00585 s⁻¹
- B5 — 16-fold lower, 0.00216 s⁻¹
- B6 — within 1.5-fold, 0.0272 s⁻¹
- B7 — 13-fold lower, 0.00265 s⁻¹
- B8 — 6.6-fold lower, 0.00521 s⁻¹
- B10 — 18-fold lower, 0.00191 s⁻¹
- B11 — 24-fold lower, 0.0014 s⁻¹
- B12 — 2.8-fold lower, 0.0123 s⁻¹
- B13 — 3.3-fold lower, 0.0104 s⁻¹
- B14 — 15-fold lower, 0.00229 s⁻¹
- B15 — 4.2-fold lower, 0.00823 s⁻¹
- B16 — 29-fold lower, 0.00118 s⁻¹
- B18 — 6-fold lower, 0.00575 s⁻¹
- B19 — 2.3-fold lower, 0.0148 s⁻¹

In the case of B9, the “α-rat koff (1/s)” value is reported as “No binding”.

Target: T2, human α-CGRP
Assay: Biacore SPR affinity of Fab fragments to N-biotinylated human α-CGRP on SA chip
Assay type: binding
Conditions: 37° C., screening mode except underlined values
Description: as §1, §2, §3

Point of comparison: B12, “α-human koff” value 0.000524 s⁻¹. Against it:
- B1 — within 1.5-fold, 0.000539 s⁻¹
- B2 — within 1.5-fold, 0.000479 s⁻¹
- B3 — within 1.5-fold, 0.000406 s⁻¹
- B4 — within 1.5-fold, 0.000478 s⁻¹
- B5 — 3.4-fold higher, 0.00179 s⁻¹
- B6 — 1.7-fold higher, 0.000911 s⁻¹
- B7 — 2.9-fold higher, 0.0015 s⁻¹
- B8 — within 1.5-fold, 0.000459 s⁻¹
- B9 — 3.7-fold higher, 0.00195 s⁻¹
- B10 — within 1.5-fold, 0.000374 s⁻¹
- B13 — 1.6-fold lower, 0.000322 s⁻¹
- B14 — 1.9-fold lower, 0.000281 s⁻¹
- B15 — 1.6-fold lower, 0.000332 s⁻¹
- B16 — 4-fold lower, 0.000131 s⁻¹
- B17 — 1.6-fold higher, 0.000842 s⁻¹
- B18 — within 1.5-fold, 0.000557 s⁻¹
- B19 — within 1.5-fold, 0.000595 s⁻¹
